Results on 1 substance are retold here after paper PMC11471779.

The target in this assay is CapGH3b (Alloprevotella sp. MAG60). The assay is described as follows: SEC-MALS. In general terms: Size exclusion chromatography separates by hydrodynamic size, large species first.

As usually defined, the stoichiometry N is the number of molecules, sites or subunits per partner or assembly. CapGH3b (enzyme) yielded a stoichiometry N of 2.
